Among the data in US7947873 are activity (% alpha-tocopherol in T2 seed) and activity (% alpha-tocopherol in R1 seed) values, retold here.

Common to all, as to experiment: cell_activity
Data set [1] has as its system AGMT8-C1 ZFP-TF (Artificial). The conditions noted are these: control 1.00; napin promoter; effective activator in leaf, not in seed per p274.
For data set [2], the system named is CGMT4-C1 ZFP-TF (Artificial). The conditions noted are these: control 39.9; napin promoter, transgenic canola.
The test system of data set [3] is AGMT5-C1 ZFP-TF (Artificial). The conditions noted are these: control 1.00; napin promoter, transgenic Arabidopsis.
Data set [4] has as its system AGMT10-C1 ZFP-TF (Artificial). The conditions noted are these: control 1.00; napin promoter; effective activator in leaf.
Data set [5] concerns AGMT9-C1 ZFP-TF (Artificial). The conditions noted are these: control 1.00; napin promoter, transgenic Arabidopsis.
Data set [6] deals with CGMT6-C1 ZFP-TF (Artificial). As to conditions: control 39.9; napin promoter, transgenic canola.
In data set [7] the test system is CGMT12-C1 ZFP-TF (Artificial). The conditions noted are these: control 39.9; napin promoter, transgenic canola.
In data set [8] the test system is CGMT3-C1 ZFP-TF (Artificial). As to conditions: control 39.9; napin promoter, transgenic canola.
Data set [9] concerns AGMT7-C1 ZFP-TF (Artificial). As to conditions: control 1.00; napin promoter; 35S promoter 1.69; 5-fold GMT mRNA increase in leaf protoplasts (p271).
Data set [10] relates to CGMT10-C1 ZFP-TF (Artificial). The conditions noted are these: control 39.9; napin promoter, transgenic canola.
Data set [11] deals with CGMT9-C1 ZFP-TF (Artificial). As to conditions: control 39.9; napin promoter, transgenic canola.
For data set [12], the system named is AGMT6-C1 ZFP-TF (Artificial). As to conditions: control 1.00; napin promoter, transgenic Arabidopsis.

The sequence “GAAGAGGGTG (double strand) [ZFP C / AGMT8 target]” displayed an activity (% alpha-tocopherol in T2 seed) in data set [1] of 1.57.

The sequence “GAGGAAGAT (double strand) [CGMT4 target]” yielded an activity (% alpha-tocopherol in R1 seed) in data set [2] of 51.9. “GAGGAAGGGG (double strand) [ZFP A / AGMT5 target]” returned an activity (% alpha-tocopherol in T2 seed) in data set [3] of 4.45. “GAGGAGGAGG (double strand) [ZFP E / AGMT10 target]” returned an activity (% alpha-tocopherol in T2 seed) in [4] of 2.86. As for “GAGGAGGATG (double strand) [ZFP D / AGMT9 target]”, the activity (% alpha-tocopherol in T2 seed) in data set [5] stood at 2.31. As for “GAGGTTGGA (double strand) [CGMT6 target]”, the activity (% alpha-tocopherol in R1 seed) in data set [6] was 59.6. “GAGGTTGGC (double strand) [CGMT12 target]” gave an activity (% alpha-tocopherol in R1 seed) in data set [7] of 64.5. As for “GATGCTGGT (double strand) [CGMT3 target]”, in data set [8], the activity (% alpha-tocopherol in R1 seed) amounted to 46.6. “GGGGAAAGGG (double strand) [ZFP B / AGMT7 target]” returned an activity (% alpha-tocopherol in T2 seed) in data set [9] of 5.95. Sequence “GTAGAGGAC (double strand) [CGMT10 target]” registered an activity (% alpha-tocopherol in R1 seed) in data set [10] of 54.2. Turning to “TAGTTGGAA (double strand) [CGMT9 target]”, the activity (% alpha-tocopherol in R1 seed) in data set [11] turned out to be 46.2. Consider “TGGGTAGTC (double strand) [AGMT6 target]”, for which, in data set [12], the activity (% alpha-tocopherol in T2 seed) is 1.74.
